In patent publication US20100043097:

Chain of GST-BRK1 (chain, as listed by the source): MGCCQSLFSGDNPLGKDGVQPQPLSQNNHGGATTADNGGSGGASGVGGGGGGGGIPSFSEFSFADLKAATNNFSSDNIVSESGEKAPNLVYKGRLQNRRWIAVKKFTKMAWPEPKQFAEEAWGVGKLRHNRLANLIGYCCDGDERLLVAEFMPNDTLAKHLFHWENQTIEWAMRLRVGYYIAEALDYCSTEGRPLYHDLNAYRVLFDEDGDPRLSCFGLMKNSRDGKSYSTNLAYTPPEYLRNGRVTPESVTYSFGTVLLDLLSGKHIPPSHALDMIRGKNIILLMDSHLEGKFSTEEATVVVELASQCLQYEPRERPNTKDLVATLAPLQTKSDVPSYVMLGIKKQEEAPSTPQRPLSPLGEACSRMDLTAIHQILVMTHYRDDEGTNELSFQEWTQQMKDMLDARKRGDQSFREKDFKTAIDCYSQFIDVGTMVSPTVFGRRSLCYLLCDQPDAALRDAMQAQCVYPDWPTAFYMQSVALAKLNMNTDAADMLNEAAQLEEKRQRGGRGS

B1: GST-BRI1-KD (protein)
chain: REMRKRRRKKEAELEMYAEGHGNSGDRTANNTNWKLTGVKEALSINLAAFEKPLRKLTFADLLQATNGFHNDSLIGSGGFGDVYKAILKDGSAVAIKKLIHVSGQGDREFMAEMETIGKIKHRNLVPLLGYCKVGDERLLVYEFMKYGSLEDVLHDPKKAGVKLNWSTRRKIAIGSARGLAFLHHNCSPHIIHRDMKSSNVLLDENLEARVSDFGMARLMSAMDTHLSVSTLAGTPGYVPPEYYQSFRCSTKGDVYSYGVVLLELLTGKRPTDSPDFGDNNLVGWVKQHAKLRISDVFDPELMKEDPALEIELLQHLKVAVACLDDRAWRRPTMVQVMAMFKEIQAGSGIDSQSTIRSIEDGGFSTIEMVDMSIKEVPEGKL
in vitro kinase assay (32P autoradiography), reduction of phosphorylation (GST tagged BRK1-S230A): a S230A mutation reduced the phosphorylation by 82%
mass spectrometry of BRI1-phosphorylated BRK1 (GST-BRK1): identified serine 230 of BRK1 as a BRI1 phosphorylation site
